The target in the assay is T1, insulin receptor (InsR) expressed in ROS17/2.8 osteoblast cells (rat (by the cell line;  for …, UniProt P15127 27-1383, limits assumed).
T1 construct: The species is inferred from the cell line only; also called insulin receptor in ROS cells
Kind of assay: GST pull-down (substrate trapping) from ROS17/2.8 cell lysate, western blot. (In general: A western blot detects proteins with antibodies after separation by electrophoresis.)

T1 sequence (P15127 27-1383 limits assumed): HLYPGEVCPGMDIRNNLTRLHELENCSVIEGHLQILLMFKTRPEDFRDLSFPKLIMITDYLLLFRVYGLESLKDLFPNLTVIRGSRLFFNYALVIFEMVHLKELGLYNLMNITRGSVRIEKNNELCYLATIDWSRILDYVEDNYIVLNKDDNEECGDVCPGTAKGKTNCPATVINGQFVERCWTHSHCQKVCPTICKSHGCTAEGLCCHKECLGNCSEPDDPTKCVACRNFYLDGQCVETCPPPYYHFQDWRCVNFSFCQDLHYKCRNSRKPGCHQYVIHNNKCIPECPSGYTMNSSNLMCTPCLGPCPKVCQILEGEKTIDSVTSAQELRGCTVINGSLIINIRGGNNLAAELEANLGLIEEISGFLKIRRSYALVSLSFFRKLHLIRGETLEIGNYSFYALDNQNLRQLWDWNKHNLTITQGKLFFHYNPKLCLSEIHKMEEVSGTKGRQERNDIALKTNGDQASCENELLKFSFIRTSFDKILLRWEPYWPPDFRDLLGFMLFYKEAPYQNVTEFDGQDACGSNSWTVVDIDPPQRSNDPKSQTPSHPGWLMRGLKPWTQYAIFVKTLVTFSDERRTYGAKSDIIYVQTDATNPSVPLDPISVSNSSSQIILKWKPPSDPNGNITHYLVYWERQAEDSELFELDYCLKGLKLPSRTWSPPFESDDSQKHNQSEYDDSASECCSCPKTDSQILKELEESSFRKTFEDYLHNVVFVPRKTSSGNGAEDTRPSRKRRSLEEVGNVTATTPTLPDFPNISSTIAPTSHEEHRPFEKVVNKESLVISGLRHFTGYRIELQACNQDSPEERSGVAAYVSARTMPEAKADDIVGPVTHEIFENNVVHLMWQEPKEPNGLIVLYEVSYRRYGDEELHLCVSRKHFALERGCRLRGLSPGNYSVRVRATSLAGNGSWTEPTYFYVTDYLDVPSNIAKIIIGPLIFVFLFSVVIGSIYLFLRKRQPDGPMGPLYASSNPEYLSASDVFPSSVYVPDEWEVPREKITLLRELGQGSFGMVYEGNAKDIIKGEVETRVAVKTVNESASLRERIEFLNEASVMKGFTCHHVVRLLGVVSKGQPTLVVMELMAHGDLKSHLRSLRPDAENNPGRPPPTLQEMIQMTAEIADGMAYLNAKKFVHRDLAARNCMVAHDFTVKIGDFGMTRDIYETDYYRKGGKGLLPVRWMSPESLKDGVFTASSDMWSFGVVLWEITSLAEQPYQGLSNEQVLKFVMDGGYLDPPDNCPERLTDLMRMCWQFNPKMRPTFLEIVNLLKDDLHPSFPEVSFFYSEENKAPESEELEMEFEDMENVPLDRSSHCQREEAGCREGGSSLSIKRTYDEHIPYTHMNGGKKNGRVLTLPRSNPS
Method: Recombinant proteins bound to Sepharose beads for 1 hour at 4° C. (insulin receptor trapping) or for 2 h at 4° C. […] Precipitates were collected, washed four times with lysis buffer and resolved on SDS-PAGE, followed by western blotting. Insulin receptor (InsR) was detected using rabbit anti-insulin receptor antibodies (Santa-Cruz, C-19) and GST was detected by mouse anti-GST antibodies (Santa-Cruz).

B1: GST-PTP^WT (a fusion of GST with the phosphatase domain I of OST-PTP, rat a.a. 1116-1412) (enzyme)
chain: KELMPYNLWRTHRPIPIHSFRQSYEAKSAHAHQTFFQEFEELKEVGKDQPRLEAEHPDNIIKNRYPHVLPYDHSRVRLTQLPGEPHSDYINANFIPGYSHTQEIIATQGPLKKTLEDFWRLVWEQQVHVIIMLTVGMENGRVLCEHYWPANSTPVTHGHITIHLLAEEPEDEWTRREFQLQHGTEQKQRRVKQLQFTTWPDHSVPEAPSSLLAFVELVQEQVQATQGKGPILVHCSAGVGRTGTFVALLRLLRQLEEEKVADVFNTVYILRLHRPLMIQTLSQYIFLHSCLLNKILE
notes: also called WT OST-PTP; not shown: Glutathione S-transferase (GST) encoded by the vector pGEX 4T3 (Amersham)
B1: the binding result is recorded as “no binding”.

These data come from patent US20140128320A1 (TRUSTEES OF COLUMBIA UNIVERSITY IN THE CITY OF NEW YORK, published 2014).
